The Human Domainome abundance scans (Beltran et al. 2025)
± gives the uncertainty stated by the source.

B1: Pyruvate dehydrogenase protein X component, mitochondrial, residues 181 to 227; numbered along this chain, O00330 (parent)
chain: RFRLSPAARNILEKHSLDASQGTATGPRGIFTKEDALKLVQLKQTGK

Variants of: B1
Experiment: abundance fitness (aPCA) (normalised: wild type 0, dead -1); higher = more abundant; growth selection in yeast, the domain comes from the species named
Settings: Homo sapiens
RFRLSPAARNILEKHSLDASQGTATGPRGIFTKEDALKLVQLKQMGK [T45M] gave an abundance fitness of -0.211 ± 0.088. RFRLSPAARNILEKHSLDASQGTATGPRGIFTKEDALKLVQLKQNGK [T45N] showed an abundance fitness of 0.096 ± 0.12. With RFRLSPAARNILEKHSLDASQGTATVPRGIFTKEDALKLVQLKQTGK [G26V] the abundance fitness was -0.489 ± 0.043. Variant RFRLSPAARNILEKHSLDASQGTATWPRGIFTKEDALKLVQLKQTGK [G26W] has an abundance fitness of -0.874 ± 0.057. For RFRLSPAARNILEKHSLDASQGTATNPRGIFTKEDALKLVQLKQTGK [G26N], the abundance fitness was -0.505 ± 0.096. In the case of RFRLSPGARNILEKHSLDASQGTATGPRGIFTKEDALKLVQLKQTGK [A7G], the abundance fitness is reported as 0.06 ± 0.049. RFRLSPQARNILEKHSLDASQGTATGPRGIFTKEDALKLVQLKQTGK [A7Q] gave an abundance fitness of 0.062 ± 0.061. In the case of RFRLSPDARNILEKHSLDASQGTATGPRGIFTKEDALKLVQLKQTGK [A7D], the abundance fitness is reported as -0.211 ± 0.11. Variant RFGLSPAARNILEKHSLDASQGTATGPRGIFTKEDALKLVQLKQTGK [R3G] has an abundance fitness of -0.336 ± 0.047. For RFELSPAARNILEKHSLDASQGTATGPRGIFTKEDALKLVQLKQTGK [R3E], the abundance fitness was -0.57 ± 0.069. With RFALSPAARNILEKHSLDASQGTATGPRGIFTKEDALKLVQLKQTGK [R3A] the abundance fitness was -0.504 ± 0.061. Variant RFRLSPAARNILEKHSLDASQGTAIGPRGIFTKEDALKLVQLKQTGK [T25I] has an abundance fitness of -0.668 ± 0.13. Variant RFRLSPAARNILEKHSLDASQGTAYGPRGIFTKEDALKLVQLKQTGK [T25Y] has an abundance fitness of -0.86 ± 0.13. RFRLSPAARNILEKHSLDASQGTAGGPRGIFTKEDALKLVQLKQTGK [T25G] showed an abundance fitness of -0.445 ± 0.046. For RFRLSPAARNILEKHSLDASQGTAWGPRGIFTKEDALKLVQLKQTGK [T25W], the abundance fitness was -1.06 ± 0.12. In the case of RFRLSPAARNILEKHSLDASQGTATGPRGIYTKEDALKLVQLKQTGK [F31Y], the abundance fitness is reported as -0.335 ± 0.071. With RFRLSPAARNILEKHSLDASQGTATGPRGIETKEDALKLVQLKQTGK [F31E] the abundance fitness was -0.087 ± 0.071. RFRLSPAARNILEKHSLDASQGTATGPRGIQTKEDALKLVQLKQTGK [F31Q] showed an abundance fitness of -0.424 ± 0.12. With RFRLSPAARNILEKHSLDASQGTATGPRGIMTKEDALKLVQLKQTGK [F31M] the abundance fitness was -0.38 ± 0.082. In the case of RFRLSPAARNILEKHSLDASQGTATGPRGIFTKEDALKMVQLKQTGK [L39M], the abundance fitness is reported as -0.089 ± 0.1. For RFRLSPAARNILEKHSLDADQGTATGPRGIFTKEDALKLVQLKQTGK [S20D], the abundance fitness was 0.087 ± 0.082. Work on RFRLSPAARNILEKHSLDAPQGTATGPRGIFTKEDALKLVQLKQTGK [S20P] yielded an abundance fitness of -0.257 ± 0.061. For RFRLSPAARNILEKHSLDASQGTATGGRGIFTKEDALKLVQLKQTGK [P27G], the abundance fitness was -0.491 ± 0.057. RFRLSPAARNILEKHSLDASQGTATGLRGIFTKEDALKLVQLKQTGK [P27L] showed an abundance fitness of -0.599 ± 0.069. RFRLSPAARNILEKHSLDASQGTATGRRGIFTKEDALKLVQLKQTGK [P27R] showed an abundance fitness of -0.363 ± 0.046. RFRLSPAARNILEKHSLDASQGTATGPRGIFTKEDALKLDQLKQTGK [V40D] showed an abundance fitness of -0.195 ± 0.081. For RFRLSPAARNILEKHSLDASQGTATGPRGIFTKEDALKLKQLKQTGK [V40K], the abundance fitness was -0.099 ± 0.11. For RFRLSPAARNILEKHSLDASQGTATGPRGIFTKEDALKLPQLKQTGK [V40P], the abundance fitness was -0.314 ± 0.12. RFRLSPAARNILEKHSLDASQGTATGPRGIFTKEDALKLFQLKQTGK [V40F] gave an abundance fitness of -0.592 ± 0.16. IFRLSPAARNILEKHSLDASQGTATGPRGIFTKEDALKLVQLKQTGK [R1I] gave an abundance fitness of -0.317 ± 0.36. Work on NFRLSPAARNILEKHSLDASQGTATGPRGIFTKEDALKLVQLKQTGK [R1N] yielded an abundance fitness of -0.353 ± 0.29. RFRLSPAARNILEKHSLDASQGTATGPRGIFTKEDALKLVQLKQTGY [K47Y] gave an abundance fitness of 0.095 ± 0.15. RFRLSPAARNILEKHSLDASQGTATGPRGIFTMEDALKLVQLKQTGK [K33M] gave an abundance fitness of -0.325 ± 0.067. In the case of RFRLSPAARNILEKHSLDASQGTATGPRGIFTHEDALKLVQLKQTGK [K33H], the abundance fitness is reported as -0.039 ± 0.15. With RFRLSPAARNILEKHSLDASQGTATGPRGIFTEEDALKLVQLKQTGK [K33E] the abundance fitness was 0.079 ± 0.044. RFRLSPAARNILEKHSLDASQGTATGPRGIFPKEDALKLVQLKQTGK [T32P] showed an abundance fitness of -0.492 ± 0.13. With RFRLSPAARNILEKHSLDASQGTATGPRGIFCKEDALKLVQLKQTGK [T32C] the abundance fitness was -0.519 ± 0.12. Variant RFRLSPAARNILEKHSLDASQGTATGPRGIFTKEDALKLVQLAQTGK [K43A] has an abundance fitness of -0.083 ± 0.084. Work on RFRLSPAARNILEKHSLDASQGTATGPRGIFTKEDALKLVQLSQTGK [K43S] yielded an abundance fitness of 0.013 ± 0.064. With RFRLSPAARNILEKHSLDASQGTATGPRGIFTKEDALKLVQLKQTCK [G46C] the abundance fitness was 0.022 ± 0.093. RFRLSPAARNIQEKHSLDASQGTATGPRGIFTKEDALKLVQLKQTGK [L12Q] showed an abundance fitness of -0.199 ± 0.061. RFRLSPAARNIMEKHSLDASQGTATGPRGIFTKEDALKLVQLKQTGK [L12M] showed an abundance fitness of -0.263 ± 0.074. Variant RFRLSPAARNINEKHSLDASQGTATGPRGIFTKEDALKLVQLKQTGK [L12N] has an abundance fitness of -0.319 ± 0.086. With RFRLSPAARNILEKHSLDASQGTATGPRGIFTKEDALKLVQLKPTGK [Q44P] the abundance fitness was -0.516 ± 0.093. Variant RFRLSPAARNILEKHSLDASQGTATGPRGIFTKEDALKLVQLKVTGK [Q44V] has an abundance fitness of -0.133 ± 0.044. Variant RFRLSPAARNILEKHSLDASQGTATGPRGIFTKEDALKLVQLKDTGK [Q44D] has an abundance fitness of -0.262 ± 0.12. With RFRLSPAARRILEKHSLDASQGTATGPRGIFTKEDALKLVQLKQTGK [N10R] the abundance fitness was 0.024 ± 0.047. With RFRLSPAARSILEKHSLDASQGTATGPRGIFTKEDALKLVQLKQTGK [N10S] the abundance fitness was 0.003 ± 0.054. RFRLSPAARNILEKHSLDASQGTATGPRLIFTKEDALKLVQLKQTGK [G29L] gave an abundance fitness of -0.609 ± 0.049. RFRLSPAARNILEKHSLDASQGTATGPRGIFTKEDALKLVQCKQTGK [L42C] gave an abundance fitness of 0.013 ± 0.062. With RFRLSPAARNILEKHSLDASQGTATGPRGIFTKEDALKLVQYKQTGK [L42Y] the abundance fitness was -0.058 ± 0.14. In the case of RFRLSPAARNILEKHSLDASQGTATGPRGIFTKEDALKLVQGKQTGK [L42G], the abundance fitness is reported as -0.183 ± 0.057. For RFRLSPAARNPLEKHSLDASQGTATGPRGIFTKEDALKLVQLKQTGK [I11P], the abundance fitness was -0.383 ± 0.15. With RFRLSPAARNILHKHSLDASQGTATGPRGIFTKEDALKLVQLKQTGK [E13H] the abundance fitness was -0.3 ± 0.1. Work on RFRLSPAARNILLKHSLDASQGTATGPRGIFTKEDALKLVQLKQTGK [E13L] yielded an abundance fitness of -0.225 ± 0.047.
